Data: patent US20260098059A1 (ENDOMET BIOSCIENCES, published 2026)
Where “and” joins values, the source holds several entries; their conditions need not be identical. Equal values may be shown once.

T1: β-catenin (UniProt P35222 134-665, limits assumed, biotinylated in the SPR and plate assays)
T1 construct: also called beta catenin; biotinylated β-catenin
T1 sequence (looked up): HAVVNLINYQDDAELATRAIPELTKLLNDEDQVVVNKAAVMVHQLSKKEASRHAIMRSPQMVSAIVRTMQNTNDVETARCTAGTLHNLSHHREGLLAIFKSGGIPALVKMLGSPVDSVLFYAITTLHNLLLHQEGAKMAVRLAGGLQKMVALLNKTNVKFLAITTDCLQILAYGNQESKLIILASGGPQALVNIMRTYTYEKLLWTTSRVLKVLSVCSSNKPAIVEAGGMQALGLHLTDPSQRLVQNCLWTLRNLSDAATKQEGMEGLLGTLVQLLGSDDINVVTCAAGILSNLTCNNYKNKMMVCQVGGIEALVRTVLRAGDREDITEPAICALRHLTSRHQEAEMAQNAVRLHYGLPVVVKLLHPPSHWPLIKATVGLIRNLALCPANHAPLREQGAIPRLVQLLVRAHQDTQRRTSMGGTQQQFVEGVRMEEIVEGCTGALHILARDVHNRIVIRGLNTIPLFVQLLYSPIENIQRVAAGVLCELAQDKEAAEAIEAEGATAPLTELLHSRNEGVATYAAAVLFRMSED

B1: SEQ ID NO: 404 (peptide)
peptide: WAQKILDEHGQRVWG
HELM: PEPTIDE1{[ac].W.[meA].Q.K.I.L.D.E.H.[O=C([C@@H](N[*:1])C1CCCCC1)[*:2]].Q.R.V.W.G.[am]}$PEPTIDE1,PEPTIDE1,5:R3-9:R3$$$V2.0
SMILES: CC[C@H](C)[C@@H]1NC(=O)[C@@H](NC(=O)[C@H](CCC(N)=O)NC(=O)[C@H](C)N(C)C(=O)[C@H](Cc2c[nH]c3ccccc23)NC(C)=O)CCCCNC(=O)CC[C@@H](C(=O)N[C@@H](Cc2c[nH]cn2)C(=O)N[C@H](C(=O)N[C@@H](CCC(N)=O)C(=O)N[C@@H](CCCNC(=N)N)C(=O)N[C@H](C(=O)N[C@@H](Cc2c[nH]c3ccccc23)C(=O)NCC(N)=O)C(C)C)C2CCCCC2)NC(=O)[C@H](CC(=O)O)NC(=O)[C@H](CC(C)C)NC1=O
B2: SEQ ID NO: 401 (peptide)
peptide: WAQKILDEHVQRVWG
HELM: PEPTIDE1{W.[meA].Q.K.I.L.D.E.H.V.Q.R.V.W.G.[am]}$PEPTIDE1,PEPTIDE1,4:R3-8:R3$$$V2.0
SMILES: CC[C@H](C)[C@@H]1NC(=O)[C@@H](NC(=O)[C@H](CCC(N)=O)NC(=O)[C@H](C)N(C)C(=O)[C@@H](N)Cc2c[nH]c3ccccc23)CCCCNC(=O)CC[C@@H](C(=O)N[C@@H](Cc2c[nH]cn2)C(=O)N[C@H](C(=O)N[C@@H](CCC(N)=O)C(=O)N[C@@H](CCCNC(=N)N)C(=O)N[C@H](C(=O)N[C@@H](Cc2c[nH]c3ccccc23)C(=O)NCC(N)=O)C(C)C)C(C)C)NC(=O)[C@H](CC(=O)O)NC(=O)[C@H](CC(C)C)NC1=O
B3: SEQ ID NO: 402 (peptide)
peptide: WAQKILDEHVQRVWG
HELM: PEPTIDE1{[ac].W.[meA].Q.K.I.L.D.E.H.V.Q.R.V.W.G.[am]}$PEPTIDE1,PEPTIDE1,5:R3-9:R3$$$V2.0
SMILES: CC[C@H](C)[C@@H]1NC(=O)[C@@H](NC(=O)[C@H](CCC(N)=O)NC(=O)[C@H](C)N(C)C(=O)[C@H](Cc2c[nH]c3ccccc23)NC(C)=O)CCCCNC(=O)CC[C@@H](C(=O)N[C@@H](Cc2c[nH]cn2)C(=O)N[C@H](C(=O)N[C@@H](CCC(N)=O)C(=O)N[C@@H](CCCNC(=N)N)C(=O)N[C@H](C(=O)N[C@@H](Cc2c[nH]c3ccccc23)C(=O)NCC(N)=O)C(C)C)C(C)C)NC(=O)[C@H](CC(=O)O)NC(=O)[C@H](CC(C)C)NC1=O
B4: SEQ ID NO: 37 (peptide)
peptide: WWESILDEHVQRVWG
HELM: PEPTIDE1{[meW].[meW].E.S.I.L.D.E.H.V.Q.R.V.W.G.[am]}$$$$V2.0
SMILES: CC[C@H](C)[C@H](NC(=O)[C@H](CO)NC(=O)[C@H](CCC(=O)O)NC(=O)[C@H](Cc1c[nH]c2ccccc12)N(C)C(=O)[C@H](Cc1c[nH]c2ccccc12)NC)C(=O)N[C@@H](CC(C)C)C(=O)N[C@@H](CC(=O)O)C(=O)N[C@@H](CCC(=O)O)C(=O)N[C@@H](Cc1c[nH]cn1)C(=O)N[C@H](C(=O)N[C@@H](CCC(N)=O)C(=O)N[C@@H](CCCNC(=N)N)C(=O)N[C@H](C(=O)N[C@@H](Cc1c[nH]c2ccccc12)C(=O)NCC(N)=O)C(C)C)C(C)C
B5: SEQ ID NO: 262 (peptide)
peptide: KWGLIXAWD
HELM: PEPTIDE1{[ac].K.W.[O=C([C@@H](N[*:1])C1CCCCC1)[*:2]].L.I.[Abu].A.W.D}$PEPTIDE1,PEPTIDE1,2:R3-10:R3$$$V2.0
SMILES: CC[C@@H]1NC(=O)[C@H]([C@@H](C)CC)NC(=O)[C@H](CC(C)C)NC(=O)[C@H](C2CCCCC2)NC(=O)[C@H](Cc2c[nH]c3ccccc23)NC(=O)[C@@H](NC(C)=O)CCCCNC(=O)C[C@@H](C(=O)O)NC(=O)[C@H](Cc2c[nH]c3ccccc23)NC(=O)[C@H](C)NC1=O

Legend:
β-catenin [1] = biological target: T1, β-catenin; assay: competitive FP
Method in brief: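 Competitive fluorescence polarization with inhibitor peptide serially diluted from 10 nM to 30 uM; polarization read at 470 nm excitation, 520 nm emission. Experiments performed three times.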

β-catenin [2] = biological target: T1, β-catenin; assay: cell-based or functional assay

Binder	Kd (β-catenin [1])	Wnt Reporter EC50 (β-catenin [2])	Proliferation IC50, Endo cells (β-catenin [2])	Proliferation IC50, Wnt dependent cells (β-catenin [2])
B1	≤ 0.4 µM	> 30 µM	–	–
B2	> 0.4 µM and ≤ 1 µM	> 30 µM	–	–
B3	≤ 0.4 µM	> 30 µM	–	–
B4	≤ 0.4 µM	> 30 µM	–	–
B5	> 0.4 µM and ≤ 1 µM	–	26.3 µM	5 µM
